Test results from article PMC5620161, “Remarkably similar CTLA-4 binding properties of therapeutic ipilimumab and tremelimumab antibodies” (Oncotarget, 2017).

Molecular target: T1, ectodomain of human CTLA-4 (aa 31-161) (human, UniProt P16410-1)
T1 construct: CTLA-4, human, ectodomain, residues 31-161 of UniProt P16410-1; Homodimer held by a disulfide bond (non-reducing SDS-PAGE and crystal structure); Cloned into pET-21a; also called extracellular domain of CTLA-4
Test: SPR; BIAcore T100, CM5 chip, CTLA-4 immobilised (5 μg/ml), scFv flowed at 6.25-200 nM, room temperature, HBS-EP (150 mM NaCl, 10 mM HEPES pH 7.4, 0.005% Tween-20), 1:1 Langmuir model
Details: both partners purified

T1 sequence (P16410 31-161): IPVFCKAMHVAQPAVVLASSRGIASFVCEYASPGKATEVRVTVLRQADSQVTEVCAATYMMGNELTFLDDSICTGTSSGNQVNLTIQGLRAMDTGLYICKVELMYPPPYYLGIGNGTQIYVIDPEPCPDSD

Kd: 5.89 nM
koff: 0.0018 s⁻¹
kon: 308000 M⁻¹ s⁻¹
B1: scFv fragment of tremelimumab (scFv, V domains shown)
VH: QVQLVESGGGVVQPGRSLRLSCAASGFTFSSYGMHWVRQAPGKGLEWVAVIWYDGSNKYYADSVKGRFTISRDNSKNTLYLQMNSLRAEDTAVYYCARDPRGATLYYYYYGMDVWGQGTTVTVSS
VL: DIQMTQSPSSLSASVGDRVTITCRASQSINSYLDWYQQKPGKAPKLLIYAASSLQSGVPSRFSGSGSGTDFTLTISSLQPEDFATYYCQQYYSTPFTFGPGTKVEIK
notes: VL of tremelimumab (IGKV1-39 framework); the Fab of tremelimumab is in PDB 5GGV; linker, printed as GG(GGSGG)3GG; VH of tremelimumab (IGHV3-33 framework); Built as VL-GG(GGSGG)3GG-VH in pET21a; The parent antibody is an IgG2; only the scFv was made here; also called tremelimumab-scFv; CP-675,206
